US20250026849A1 (ARCELLX, published 2025)
Residue numbers refer to the chain shown, from its start.

T1: CD123 (Homo sapiens (Human), UniProt P26951 19-305, limits assumed)
T1 construct: The CD123 construct used in the ELISA is not described; also called CD123-Signal
T1 sequence: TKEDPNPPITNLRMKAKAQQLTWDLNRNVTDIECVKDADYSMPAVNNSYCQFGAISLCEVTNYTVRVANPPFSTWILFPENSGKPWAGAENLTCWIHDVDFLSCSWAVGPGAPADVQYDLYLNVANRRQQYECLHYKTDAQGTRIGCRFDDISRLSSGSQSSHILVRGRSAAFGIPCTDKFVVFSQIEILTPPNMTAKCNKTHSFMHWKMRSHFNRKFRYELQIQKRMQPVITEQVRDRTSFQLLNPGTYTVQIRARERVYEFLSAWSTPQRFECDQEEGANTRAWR

B1: D domain of SEQ ID NO: 503 (designed binder)
chain: MGSWHWFKEDLANIKDWLEALGGSEAELAWFEDNIADFEGDLQVYKGKGNPEVEALRKEAAAIRDELQAYRHN
B2: D domain of SEQ ID NO: 504 (designed binder)
chain: B1 chain with H5F, N13F, D16E, W17D, N34G, D37F, G40W, V44D
B3: D domain of SEQ ID NO: 505 (designed binder)
chain: B1 chain with H5Q, N13E, D16H, W17D, N34F, D37Q, G40F, V44W
B4: D domain of SEQ ID NO: 506 (designed binder)
chain: B1 chain with N13I, D16Q, W17D, W30T, D33Q, N34W, D37E, G40W, V44E
B5: D domain of SEQ ID NO: 507 (designed binder)
chain: B1 chain with H5N, N13I, D16M, W17D, D33H, D37G, G40F, D41E, V44G
B6: D domain of SEQ ID NO: 508 (designed binder)
chain: MGSWSWFKEDLAEIKMELEALGGSEAELAYFEWYIAEFEFQLQHYKGKGNPEVEALRKEAAAIRDELQAYRHN
B7: D domain of SEQ ID NO: 509 (designed binder)
chain: B6 chain with E9Q, E13D, M16I, E17Q, Y30W, Y34D, Q41E, H44D
B8: D domain of SEQ ID NO: 510 (designed binder)
chain: B1 chain with H5S, N13D, D16F, W17E, D33L, N34D, G40Q, D41A, V44Q
B9: D domain of SEQ ID NO: 511 (designed binder)
chain: B6 chain with E13S, M16A, E17V, Y30F, W33S, Y34D, F40Q, Q41E, H44Y
B10: D domain of SEQ ID NO: 512 (designed binder)
chain: MGSWWEFKEDLAEIKWFLEALGGSEAELAWFEHDIAKFEFELQYYKGKGNPEVEALRKEAAAIRDELQAYRHN
B11: D domain of SEQ ID NO: 514 (designed binder)
chain: B10 chain with W5N, E9D, E13M, W16M, F17T, K37E, F40D, E41D, Y44W
B12: D domain of SEQ ID NO: 513 (designed binder)
chain: B10 chain with W5E, E6W, E9S, E13S, F17E, K37E, F40E, E41D, Y44W
B13: D domain of SEQ ID NO: 516 (designed binder)
chain: B6 chain with W6D, E9D, E17I, W33N, Y34D, E37W, F40D, Q41D, H44E
B14: D domain of SEQ ID NO: 517 (designed binder)
chain: MGSWSMFKDDLAEIKASLEALGGSEAELAWFEDDIAWFEDDLQHYKGKGNPEVEALRKEAAAIRDELQAYRHN
B15: D domain of SEQ ID NO: 518 (designed binder)
chain: B14 chain with S5Q, M6Y, A16M, S17V, D33A, W37M, H44I
B16: D domain of SEQ ID NO: 515 (designed binder)
chain: B14 chain with S5T, M6F, A16W, S17M, D33S, W37Y, D41E, H44W
B17: D domain of SEQ ID NO: 519 (designed binder)
chain: B14 chain with M6F, A16Y, S17F, W30M, D33Q, D34T, W37E, D40Y, H44D
B18: D domain of SEQ ID NO: 520 (designed binder)
chain: MGSWMEFKEELAEIKYILEALGGSEAELAWFEQSIADFEYDLQDYKGKGNPEVEALRKEAAAIRDELQAYRHN
B19: D domain of SEQ ID NO: 521 (designed binder)
chain: B18 chain with M5A, E6W, E10D, Y16V, I17F, W30E, Q33V, D41E
B20: D domain of SEQ ID NO: 522 (designed binder)
chain: B14 chain with S5Y, M6E, D9F, A16E, S17Q, W30L, W37F, D40Y, H44N
B21: D domain of SEQ ID NO: 523 (designed binder)
chain: MGSWYDFKYDLAEIKMDLEALGGSEAELAQFEFDIAFFEEELQDYKGKGNPEVEALRKEAAAIRDELQAYRHN
B22: D domain of SEQ ID NO: 524 (designed binder)
chain: B6 chain with S5Y, W6I, M16E, W33E, Y34E, E37L, F40M, Q41E, H44W
B23: D domain of SEQ ID NO: 525 (designed binder)
chain: MGSWVLFKEELAYIKFELEALGGSEAELALFENVIAIFESNLQNYKGKGNPEVEALRKEAAAIRDELQAYRHN
B24: D domain of SEQ ID NO: 526 (designed binder)
chain: MGSWQDFKEDLAWIKYELEALGGSEAELAFFEYDIAIFENNLQHYKGKGNPEVEALRKEAAAIRDELQAYRHN
B25: D domain of SEQ ID NO: 527 (designed binder)
chain: MGSWDHFKNDLAWIKKHLEALGGSEAELAEFEAVIAYFELYLQGYKGKGNPEVEALRKEAAAIRDELQAYRHN
B26: D domain of SEQ ID NO: 528 (designed binder)
chain: MGSWYDFKEDLADIKWMLEALGGSEAELAEFENVIAYFENDLQEYKGKGNPEVEALRKEAAAIRDELQAYRHN
B27: D domain of SEQ ID NO: 529 (designed binder)
chain: B14 chain with S5Y, D9E, D10E, E13D, A16W, S17Y, W37G, D40W, H44A
B28: D domain of SEQ ID NO: 530 (designed binder)
chain: MGSWYYFKDELADIKWDLEALGGSEAELAWFEMLIAQFELDLQWYKGKGNPEVEALRKEAAAIRDELQAYRHN
B29: D domain of SEQ ID NO: 531 (designed binder)
chain: B28 chain with Y5M, E10T, D17Y, W30F, M33D, L34W, Q37E, L40D, W44V
B30: D domain of SEQ ID NO: 532 (designed binder)
chain: B1 chain with H5Y, W6Q, E9H, N13D, D16Y, W17G, N34D, G40L, V44Y
B31: D domain of SEQ ID NO: 533 (designed binder)
chain: B26 chain with D6V, E9D, W16Y, E30W, N33W, V34E, Y37N, N40F, E44Y
B32: D domain of SEQ ID NO: 534 (designed binder)
chain: MGSWNFFKYDLADIMAYLEALGGSEAELAFFEDEIANFEHDLQKYKGKGNPEVEALRKEAAAIRDELQAYRHN
B33: D domain of SEQ ID NO: 535 (designed binder)
chain: B1 chain with E9I, D10V, N13D, W17G, W30Y, D33T, N34T, G40M, V44H
B34: D domain of SEQ ID NO: 536 (designed binder)
chain: MGSWHWFKIVLADIKDGLEALGGSEAELAYFETTIADFEMDLHHYKGKGNPEVEALRKEAAAIRDELQAYRHN
B35: D domain of SEQ ID NO: 537 (designed binder)
chain: MGSWFMFKEELADIKDWLEALGGSEAELASFESYIAWFEQDLQWYKGKGNPEVEALRKEAAAIRDELQAYRHN
B36: D domain of SEQ ID NO: 538 (designed binder)
chain: MGSWFMFKQELAWIKEDLEALGGSEAELADFEWDIAEFEWDLQYYKGKGNPEVEALRKEAAAIRDELQAYRHN
B37: D domain of SEQ ID NO: 539 (designed binder)
chain: B36 chain with F5Q, M6I, Q9G, W13Y, E16Q, D17Y, D30F, W33F, W40E
B38: D domain of SEQ ID NO: 540 (designed binder)
chain: B18 chain with M5D, E6F, Y16H, I17Y, W30F, Q33F, S34W, Y40Q, D44E
B39: D domain of SEQ ID NO: 541 (designed binder)
chain: MGSWFNFKEELAVIKFQLEALGGSEAELAFFEWVIADFEDDLQEYKGKGNPEVEALRKEAAAIRDELQAYRHN
B40: D domain of SEQ ID NO: 542 (designed binder)
chain: B39 chain with F5Y, N6Q, E9T, V13W, F16D, Q17D, F30W, E44F

Target: T1, CD123
Assay: ELISA
Design: unit not given here

| Binder | ELISA_avg |
| --- | --- |
| B1 | 3.3 |
| B2 | 13.7 |
| B3 | 3.8 |
| B4 | 5.5 |
| B5 | 3.1 |
| B6 | 4.8 |
| B7 | 4 |
| B8 | 6.8 |
| B9 | 6.9 |
| B10 | 5.1 |
| B11 | 3.5 |
| B12 | 5.7 |
| B13 | 4.7 |
| B14 | 5.2 |
| B15 | 3.6 |
| B16 | 3.3 |
| B17 | 10.1 |
| B18 | 5 |
| B19 | 3.5 |
| B20 | 4.6 |

| Binder | ELISA_avg |
| --- | --- |
| B21 | 3.2 |
| B22 | 11.1 |
| B23 | 3.5 |
| B24 | 3.2 |
| B25 | 3.3 |
| B26 | 8 |
| B27 | 7 |
| B28 | 4 |
| B29 | 3.1 |
| B30 | 4.7 |
| B31 | 3.8 |
| B32 | 4.4 |
| B33 | 4.3 |
| B34 | 3.5 |
| B35 | 5.7 |
| B36 | 7.2 |
| B37 | 4.7 |
| B38 | 3.7 |
| B39 | 6.1 |
| B40 | 6.6 |
